According to patent publication US20160223545A1:

Key:
[1] = target: phosphorylated adapter protein p52ShcA (UniProt P29353); assay: multiplate ELISA, comparison of Kd values
[2] = target: phosphorylated adapter protein p52ShcA (UniProt P29353); assay: multiplate ELISA, P-p52ShcA coated, GST-P-Jak3 titrated, anti-GST detection
phosphorylated Villin [3] = target: T1, phosphorylated Villin (UniProt P09327); assay: multiplate ELISA, P-Villin coated, GST-P-Jak3 titrated, anti-GST detection, GST-alone control subtracted
T1 sequence (tyrosine phosphorylated by expression in E. coli TKX1; sites not stated, looked up): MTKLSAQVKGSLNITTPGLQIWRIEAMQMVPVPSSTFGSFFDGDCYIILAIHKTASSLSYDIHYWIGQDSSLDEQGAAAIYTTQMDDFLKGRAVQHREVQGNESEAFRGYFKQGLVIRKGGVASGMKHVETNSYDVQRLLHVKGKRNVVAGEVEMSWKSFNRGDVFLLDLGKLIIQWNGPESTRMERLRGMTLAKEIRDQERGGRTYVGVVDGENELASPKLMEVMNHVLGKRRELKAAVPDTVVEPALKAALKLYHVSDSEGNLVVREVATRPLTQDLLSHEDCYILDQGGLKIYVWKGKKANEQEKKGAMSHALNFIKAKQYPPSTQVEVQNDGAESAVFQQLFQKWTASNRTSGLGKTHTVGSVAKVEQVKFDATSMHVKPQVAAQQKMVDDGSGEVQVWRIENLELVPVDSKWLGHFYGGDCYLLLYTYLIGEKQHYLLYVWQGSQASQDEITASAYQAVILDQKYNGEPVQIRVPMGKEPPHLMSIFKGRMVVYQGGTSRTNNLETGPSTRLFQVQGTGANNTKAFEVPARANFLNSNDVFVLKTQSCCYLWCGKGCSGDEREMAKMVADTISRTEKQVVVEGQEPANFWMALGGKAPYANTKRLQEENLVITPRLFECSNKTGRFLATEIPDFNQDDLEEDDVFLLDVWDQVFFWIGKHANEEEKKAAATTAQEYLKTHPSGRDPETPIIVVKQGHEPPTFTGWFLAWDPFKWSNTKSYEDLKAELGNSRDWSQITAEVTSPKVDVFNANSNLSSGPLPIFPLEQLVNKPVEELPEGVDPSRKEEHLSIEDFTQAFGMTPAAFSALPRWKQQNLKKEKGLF

phosphorylated Villin [4] = target: T1, phosphorylated Villin; assay: multiplate ELISA, P-Villin coated, GST-Jak3-G257 titrated, anti-GST detection

Row | fold weaker than P-Jak3 binding with P-Villin [1] | Kd [2] | Kd (phosphorylated Villin [3]) | Kd (phosphorylated Villin [4]) | Substance
1 | 10 fold | 220 nM | 23 nM |  | phosphorylated GST-WT-Jak3 fusion protein (enzyme)
2 |  |  |  | 40 nM | GST-truncated Jak3 fusion protein lacking the JH1, JH2, JH3 and JH4 domains
